Laboratory results reported in patent US20180071366A1.
Each block holds one binder with its values, some of them ahead of it. Numbered stars: 1 amine (or outer) side, 2 acyl side, 3 side chain; on linkers, the order of the positions; unused ones are H or OH. Bridge positions count the residues as written; N and C are the ends. Square brackets hold non-standard residues; d marks the D form. * marks the point of attachment. C20 diacid = O=C(O)CCCCCCCCCCCCCCCCCCC(=O)*; γGlu = O=C(O)[C@H](CCC(=O)[*:2])N[*:1]; Hyp = O=C(O)[C@@H]1C[C@@H](O)CN1; NMeI = CC[C@H](C)[C@H](NC)C(=O)O; Aad = N[C@@H](CCCC(=O)O)C(=O)O; Orn = NCCC[C@H](N)C(=O)O; Sar = CNCC(=O)O

Experiments:
[1] = biological target: recombinant human calcitonin receptor (hCT-R) (human), P30988; assay: cell-based or functional assay
recombinant human calcitonin receptor (hCT-R) (human), P30988, sequence (P30988 25-474): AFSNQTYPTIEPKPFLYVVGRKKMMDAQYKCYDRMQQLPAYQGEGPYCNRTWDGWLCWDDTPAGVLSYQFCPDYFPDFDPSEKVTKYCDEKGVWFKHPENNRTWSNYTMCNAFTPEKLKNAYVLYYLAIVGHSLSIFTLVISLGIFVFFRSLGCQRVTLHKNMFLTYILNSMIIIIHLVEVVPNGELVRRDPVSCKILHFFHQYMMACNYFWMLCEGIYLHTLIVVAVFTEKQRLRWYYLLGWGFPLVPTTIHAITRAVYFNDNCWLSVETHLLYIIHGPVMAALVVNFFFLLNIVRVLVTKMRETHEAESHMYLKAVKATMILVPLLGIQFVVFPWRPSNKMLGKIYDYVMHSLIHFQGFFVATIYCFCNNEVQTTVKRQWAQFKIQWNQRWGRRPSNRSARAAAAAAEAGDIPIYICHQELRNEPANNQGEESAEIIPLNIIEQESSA

[2] = biological target: recombinant human amylin 3 receptor (hAMYR3) (human), P30988; assay: cell-based or functional assay
recombinant human amylin 3 receptor (hAMYR3) (human), P30988, sequence (P30988 25-474, chain 1 of 2): as the sequence (P30988 25-474) above
recombinant human amylin 3 receptor (hAMYR3) (human), P30988, sequence (O60896 24-148, chain 2 of 2, further chain): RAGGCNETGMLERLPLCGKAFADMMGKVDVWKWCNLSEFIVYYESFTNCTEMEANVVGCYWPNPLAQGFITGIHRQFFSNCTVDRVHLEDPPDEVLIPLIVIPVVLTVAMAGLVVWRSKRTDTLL

- hCT-R EC50 [nM] (cAMP formation, 1321N1 cells expressing hCT-R) [1]: 0.206 nM
- hAMYR3 EC50 [nM] (cAMP formation, 1321N1 cells expressing hAMYR3) [2]: 0.063 nM
B1: Compound 34 (peptide)
peptide: {C20 diacid-γGlu}-RDGTATKATERLA[Aad]FLQRSSF[Sar]A[NMeI]PSSTEVGSNT[Hyp]-NH2
modifications: lactam 2-7
SMILES: CC[C@H](C)[C@@H](C(=O)N1CCC[C@H]1C(=O)N[C@@H](CO)C(=O)N[C@@H](CO)C(=O)N[C@H](C(=O)N[C@@H](CCC(=O)O)C(=O)N[C@H](C(=O)NCC(=O)N[C@@H](CO)C(=O)N[C@@H](CC(N)=O)C(=O)N[C@H](C(=O)N1C[C@H](O)C[C@H]1C(N)=O)[C@@H](C)O)C(C)C)[C@@H](C)O)N(C)C(=O)[C@H](C)NC(=O)CN(C)C(=O)[C@H](Cc1ccccc1)NC(=O)[C@H](CO)NC(=O)[C@H](CO)NC(=O)[C@H](CCCNC(=N)N)NC(=O)[C@H](CCC(N)=O)NC(=O)[C@H](CC(C)C)NC(=O)[C@H](Cc1ccccc1)NC(=O)[C@H](CCCC(=O)O)NC(=O)[C@H](C)NC(=O)[C@H](CC(C)C)NC(=O)[C@H](CCCNC(=N)N)NC(=O)[C@H](CCC(=O)O)NC(=O)[C@@H](NC(=O)[C@H](C)NC(=O)[C@@H]1CCCCNC(=O)C[C@H](NC(=O)[C@H](CCCNC(=N)N)NC(=O)CC[C@H](NC(=O)CCCCCCCCCCCCCCCCCCC(=O)O)C(=O)O)C(=O)NCC(=O)N[C@@H]([C@@H](C)O)C(=O)N[C@@H](C)C(=O)N[C@@H]([C@@H](C)O)C(=O)N1)[C@@H](C)O

- hCT-R EC50 [nM] (cAMP formation, 1321N1 cells expressing hCT-R) [1]: 0.019 nM
- hAMYR3 EC50 [nM] (cAMP formation, 1321N1 cells expressing hAMYR3) [2]: 0.009 nM
B2: Compound 33 (peptide)
peptide: {C20 diacid-γGlu}-RDGTATKATERLA[Aad]FLQRANF[Sar]A[NMeI]LSSTEVGSNT[Hyp]-NH2
modifications: lactam 2-7
SMILES: CC[C@H](C)[C@@H](C(=O)N[C@@H](CC(C)C)C(=O)N[C@@H](CO)C(=O)N[C@@H](CO)C(=O)N[C@H](C(=O)N[C@@H](CCC(=O)O)C(=O)N[C@H](C(=O)NCC(=O)N[C@@H](CO)C(=O)N[C@@H](CC(N)=O)C(=O)N[C@H](C(=O)N1C[C@H](O)C[C@H]1C(N)=O)[C@@H](C)O)C(C)C)[C@@H](C)O)N(C)C(=O)[C@H](C)NC(=O)CN(C)C(=O)[C@H](Cc1ccccc1)NC(=O)[C@H](CC(N)=O)NC(=O)[C@H](C)NC(=O)[C@H](CCCNC(=N)N)NC(=O)[C@H](CCC(N)=O)NC(=O)[C@H](CC(C)C)NC(=O)[C@H](Cc1ccccc1)NC(=O)[C@H](CCCC(=O)O)NC(=O)[C@H](C)NC(=O)[C@H](CC(C)C)NC(=O)[C@H](CCCNC(=N)N)NC(=O)[C@H](CCC(=O)O)NC(=O)[C@@H](NC(=O)[C@H](C)NC(=O)[C@@H]1CCCCNC(=O)C[C@H](NC(=O)[C@H](CCCNC(=N)N)NC(=O)CC[C@H](NC(=O)CCCCCCCCCCCCCCCCCCC(=O)O)C(=O)O)C(=O)NCC(=O)N[C@@H]([C@@H](C)O)C(=O)N[C@@H](C)C(=O)N[C@@H]([C@@H](C)O)C(=O)N1)[C@@H](C)O

- hCT-R EC50 [nM] (cAMP formation, 1321N1 cells expressing hCT-R) [1]: 0.16 nM
- hAMYR3 EC50 [nM] (cAMP formation, 1321N1 cells expressing hAMYR3) [2]: 0.092 nM
B3: Compound 4 (peptide)
peptide: {C20 diacid-γGlu-γGlu}-RDGTAT[Orn]ATERLAHFLQRSSF[Sar]A[NMeI]LSSTEVGSNT[Hyp]-NH2
modifications: lactam 2-7
SMILES: CC[C@H](C)[C@@H](C(=O)N[C@@H](CC(C)C)C(=O)N[C@@H](CO)C(=O)N[C@@H](CO)C(=O)N[C@H](C(=O)N[C@@H](CCC(=O)O)C(=O)N[C@H](C(=O)NCC(=O)N[C@@H](CO)C(=O)N[C@@H](CC(N)=O)C(=O)N[C@H](C(=O)N1C[C@H](O)C[C@H]1C(N)=O)[C@@H](C)O)C(C)C)[C@@H](C)O)N(C)C(=O)[C@H](C)NC(=O)CN(C)C(=O)[C@H](Cc1ccccc1)NC(=O)[C@H](CO)NC(=O)[C@H](CO)NC(=O)[C@H](CCCNC(=N)N)NC(=O)[C@H](CCC(N)=O)NC(=O)[C@H](CC(C)C)NC(=O)[C@H](Cc1ccccc1)NC(=O)[C@H](Cc1c[nH]cn1)NC(=O)[C@H](C)NC(=O)[C@H](CC(C)C)NC(=O)[C@H](CCCNC(=N)N)NC(=O)[C@H](CCC(=O)O)NC(=O)[C@@H](NC(=O)[C@H](C)NC(=O)[C@@H]1CCCNC(=O)C[C@H](NC(=O)[C@H](CCCNC(=N)N)NC(=O)CC[C@H](NC(=O)CC[C@H](NC(=O)CCCCCCCCCCCCCCCCCCC(=O)O)C(=O)O)C(=O)O)C(=O)NCC(=O)N[C@@H]([C@@H](C)O)C(=O)N[C@@H](C)C(=O)N[C@@H]([C@@H](C)O)C(=O)N1)[C@@H](C)O

- hCT-R EC50 [nM] (cAMP formation, 1321N1 cells expressing hCT-R) [1]: 0.026 nM
- hAMYR3 EC50 [nM] (cAMP formation, 1321N1 cells expressing hAMYR3) [2]: 0.007 nM
B4: Compound 36 (peptide)
peptide: {C20 diacid-γGlu}-RDGTATKATERLA[Aad]FLQRSSF[Sar]A[NMeI]LSSTETGSNT[Hyp]-NH2
modifications: lactam 2-7
SMILES: CC[C@H](C)[C@@H](C(=O)N[C@@H](CC(C)C)C(=O)N[C@@H](CO)C(=O)N[C@@H](CO)C(=O)N[C@H](C(=O)N[C@@H](CCC(=O)O)C(=O)N[C@H](C(=O)NCC(=O)N[C@@H](CO)C(=O)N[C@@H](CC(N)=O)C(=O)N[C@H](C(=O)N1C[C@H](O)C[C@H]1C(N)=O)[C@@H](C)O)[C@@H](C)O)[C@@H](C)O)N(C)C(=O)[C@H](C)NC(=O)CN(C)C(=O)[C@H](Cc1ccccc1)NC(=O)[C@H](CO)NC(=O)[C@H](CO)NC(=O)[C@H](CCCNC(=N)N)NC(=O)[C@H](CCC(N)=O)NC(=O)[C@H](CC(C)C)NC(=O)[C@H](Cc1ccccc1)NC(=O)[C@H](CCCC(=O)O)NC(=O)[C@H](C)NC(=O)[C@H](CC(C)C)NC(=O)[C@H](CCCNC(=N)N)NC(=O)[C@H](CCC(=O)O)NC(=O)[C@@H](NC(=O)[C@H](C)NC(=O)[C@@H]1CCCCNC(=O)C[C@H](NC(=O)[C@H](CCCNC(=N)N)NC(=O)CC[C@H](NC(=O)CCCCCCCCCCCCCCCCCCC(=O)O)C(=O)O)C(=O)NCC(=O)N[C@@H]([C@@H](C)O)C(=O)N[C@@H](C)C(=O)N[C@@H]([C@@H](C)O)C(=O)N1)[C@@H](C)O

- hCT-R EC50 [nM] (cAMP formation, 1321N1 cells expressing hCT-R) [1]: 0.066 nM
- hAMYR3 EC50 [nM] (cAMP formation, 1321N1 cells expressing hAMYR3) [2]: 0.028 nM
Binder: {C20 diacid-γGlu}-RDGTATKATERLA[Aad]FLQRSSF[Sar]A[NMeI]LSSTEVGSNT[Hyp]-NH2 (lactam 2-7) [Compound 35]

- hCT-R EC50 [nM] (cAMP formation, 1321N1 cells expressing hCT-R) [1]: 0.116 nM
- hAMYR3 EC50 [nM] (cAMP formation, 1321N1 cells expressing hAMYR3) [2]: 0.031 nM
B5: Compound 37 (peptide)
peptide: {C20 diacid-γGlu}-EDGTATKATERLA[Aad]FLQRSSF[Sar]A[NMeI]LSSTEVGSNT[Hyp]-NH2
modifications: lactam 2-7
SMILES: CC[C@H](C)[C@@H](C(=O)N[C@@H](CC(C)C)C(=O)N[C@@H](CO)C(=O)N[C@@H](CO)C(=O)N[C@H](C(=O)N[C@@H](CCC(=O)O)C(=O)N[C@H](C(=O)NCC(=O)N[C@@H](CO)C(=O)N[C@@H](CC(N)=O)C(=O)N[C@H](C(=O)N1C[C@H](O)C[C@H]1C(N)=O)[C@@H](C)O)C(C)C)[C@@H](C)O)N(C)C(=O)[C@H](C)NC(=O)CN(C)C(=O)[C@H](Cc1ccccc1)NC(=O)[C@H](CO)NC(=O)[C@H](CO)NC(=O)[C@H](CCCNC(=N)N)NC(=O)[C@H](CCC(N)=O)NC(=O)[C@H](CC(C)C)NC(=O)[C@H](Cc1ccccc1)NC(=O)[C@H](CCCC(=O)O)NC(=O)[C@H](C)NC(=O)[C@H](CC(C)C)NC(=O)[C@H](CCCNC(=N)N)NC(=O)[C@H](CCC(=O)O)NC(=O)[C@@H](NC(=O)[C@H](C)NC(=O)[C@@H]1CCCCNC(=O)C[C@H](NC(=O)[C@H](CCC(=O)O)NC(=O)CC[C@H](NC(=O)CCCCCCCCCCCCCCCCCCC(=O)O)C(=O)O)C(=O)NCC(=O)N[C@@H]([C@@H](C)O)C(=O)N[C@@H](C)C(=O)N[C@@H]([C@@H](C)O)C(=O)N1)[C@@H](C)O
